Test results from the nanobody polyreactivity screen of Harvey et al. (2022).

Assay: yeast display, Sf9 membrane polyspecificity reagent, FACS + sequencing; frameworks hold sequencing errors
In short: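 A nanobody's polyreactivity label depends on the gate it was sorted from. Yeast display cells were stained with 10% biotinylated, detergent-solubilized Sf9 membrane reagent for 1 hour at 4 °C, enriched on streptavidin microbeads and sorted by FACS. The low and high (top ~1%) gates were set on anti-HA fluorescence for expression and streptavidin fluorescence for reagent binding.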
In the case of “QVQLVESGGGLDQAGGSLRLSCAASGRIFDSNAMGWYRQAPGKERELVAAISYDGGSTYYADSVKGRFTISRDNAKNTVYLQMNSLKPEDTAVYYCAGDDGWYYYYGYDYWGQGTQVTVSS”, the “polyreactivity (PSR sort gate)” value is reported as “low polyreactivity”.
In the case of “QVQLVESGGGLDQAGGSLRLSCAASGRIFGYYVMGWYRQAPGKEREFVAAISRSGGSTYYADSVKGRFTISRDNAKTTVYLQMNSLKPEDTAVYYCAKRVSTYGFSGYDYWGQGTQVTVSS”, the “polyreactivity (PSR sort gate)” value is reported as “high polyreactivity”.
For “QVQLVESGGGLDQAGGSLRLSCAASGRIFLVYVMGWYRQAPGKERELVAAISASDGSTYYADSVKGRFTISRDNANNTVYLQMNSLKPEDTAVDYCAEWGYSLDSNSYRELNYWGQGTQVNVSS”, the “polyreactivity (PSR sort gate)” value was “low polyreactivity”.
With “QVQLVESGGGLDQAGGSLRLSCAASGRIFSRYTMGWYRQAPGKERELVAAISSGGGSNYADSVKGRFTISRDNAKNSVYLQMTSLNPEDTEVYYCNARSWLSRGYGYWGQGTQVTVSS” the “polyreactivity (PSR sort gate)” value was “high polyreactivity”.
In the case of “QVQLVESGGGLDQAGGSLRLSCAASGRIIYWYAMGWFRQAPGKERELVAAINNGGGTNYADSVKGRFTISRDNAKHTVYLQMNSLKPEDTAVYYCAADYVFYSRFFTEVYWGQGTQVTVSS”, the “polyreactivity (PSR sort gate)” value is reported as “low polyreactivity”.
For “QVQLVESGGGLDQAGGSLRLSCAASGRILGYNALGWYRQAPGKERELVAAIRTGTTNYADSVKGRFTISRDNAKNTVYLQMNSLKPEDTAVYYCAALRPYNEGSSHLFRYDYWGQGTQVTVSS”, the “polyreactivity (PSR sort gate)” value was “low polyreactivity”.
In the case of “QVQLVESGGGLDQAGGSLRLSCAASGRIVVGYAMGWYRQAPGKERELVAAINRSGSSTYYADSVKGRFTISRDNGKITVYLQMNSLKPEDTAVYYCNARSGNRYGPRYDYWGQGTQVTVSS”, the “polyreactivity (PSR sort gate)” value is reported as “high polyreactivity”.
In the case of “QVQLVESGGGLDQAGGSLRLSCAASGRTFFYNAMGWYRQAPGKESEWDAAISYSGGSTYYADSVKGRFTISRDNAKNTVYLQMNSLKPEDTAVYYCAARDKTRSVRRTGMDYWGQGTQVTVSS”, the “polyreactivity (PSR sort gate)” value is reported as “high polyreactivity”.
In the case of “QVQLVESGGGLDQAGGSLRLSCAASGRTFGWYAMGWYRQAPGTERELVAVISSSGGRTYYADSVKGRFTISRDNAKNTVYLQLNSLKPEDTAVYYCATPNGSKRYSYYYWGQGTQVTVSS”, the “polyreactivity (PSR sort gate)” value is reported as “high polyreactivity”.
With “QVQLVESGGGLDQAGGSLRLSCAASGRTFRNYVMGWYRQAPGKERELVAAISRSGGSTYYADSVKGRFTISRDNAKNSVYLQMNSLKPEDTAVYYCNTVTTYDVEYWGQGTQVTVSS” the “polyreactivity (PSR sort gate)” value was “high polyreactivity”.
For “QVQLVESGGGLDQAGGSLRLSCAASGRTFSWYAMGWYRQAPGKERELVAAITYSGGNTYYAHSVKGRFTISRDNAKITVYLLRNSLKPDDNAVYYCAAPSLIAKYEYWGQGTQVTVSS”, the “polyreactivity (PSR sort gate)” value was “high polyreactivity”.
With “QVQLVESGGGLDQAGGSLRLSCAASGSIFAYAMPLYRQAPGKERELVASISTSTDITYADSVKGRFTISRDNAMNSVYFLMNSLKPEDTAVYYCAATYWQWWGWYDYWGEGTQVTVSS” the “polyreactivity (PSR sort gate)” value was “high polyreactivity”.
In the case of “QVQLVESGGGLDQAGGSLRLSCAASGSIFGNNAMGWYRQAPGKERELVASISSSSGSTNYADSVKGRFTISRDNAKNTVYVQMNSLKPEDTAVYYCAARWRYWSRKYDYWGQGTQVTVSS”, the “polyreactivity (PSR sort gate)” value is reported as “high polyreactivity”.
In the case of “QVQLVESGGGLDQAGGSLRLSCAASGSIFSTYAMGWYRQAPGKERELVAAISRNGGSTSYADSVKGRFTISRDNAKNTVYLQMNILKPEDTAVYYCNAGVYWPGEFDYWGQGTQVTVSS”, the “polyreactivity (PSR sort gate)” value is reported as “high polyreactivity”.
In the case of “QVQLVESGGGLDQAGGSLRLSCAASGSIFTQYAMGWYRQAPGKERELVAAITSGGSTYADSVKGRFTISRDNAKNTVYLQMNSLKPEDTAVYYCATPYSYRGVTFNYWGQGTLVTVSS”, the “polyreactivity (PSR sort gate)” value is reported as “low polyreactivity”.
With “QVQLVESGGGLDQAGGSLRLSCAASGSIFWSYDRGWYRQAPGKETELVATITSGDSTYYADSVKGRFTISRDNEKNTVYLPMKSLKPEDTAVYYCAAGTFYRPTYCHREYDYWGQGTQVTVSS” the “polyreactivity (PSR sort gate)” value was “low polyreactivity”.
For “QVQLVESGGGLDQAGGSLRLSCAASGSIFWYNTMGWYRQAPGKERELVAAITFSGGSTYYADSVKGRFTISRDNAKNTVYLQMNSLKPEDTAVYYCAAVFYSAVGYFYWGQGTQVTVSS”, the “polyreactivity (PSR sort gate)” value was “low polyreactivity”.
With “QVQLVESGGGLDQAGGSLRLSCAASGSISAIYTMGWYRQAPGKERELVAAISSGDSTNYADSVKGRFTISRDNAKNTVYLQMNSLKPEDTAVYYCATERSHLATGQGYYYVQTFYYWGQGTEVTVSS” the “polyreactivity (PSR sort gate)” value was “low polyreactivity”.
In the case of “QVQLVESGGGLDQAGGSLRLSCAASGSIYWNNAMGWYRQAPRKERELDAAISKSGTRTYYADSVKGRFTISRDNAKNTVYLQMNSLKPEDTAVYYCNALLSDSGTYAGDDYWGQGTQVTVSS”, the “polyreactivity (PSR sort gate)” value is reported as “high polyreactivity”.
In the case of “QVQLVESGGGLDQAGGSLRLSCAASGSTFFKYAMGWYRQAPAKERELVAAISQNGGSTYYADSVKGRFTISRDNAKNTVYFQMNSLNPEDTAVYYCATGPNSYDYWGQGNQVTVSS”, the “polyreactivity (PSR sort gate)” value is reported as “high polyreactivity”.
With “QVQLVESGGGLDQAGGSLRLSCAASGSTFTRNAMRWYRQAPGKERELVATISSGGSTNYADSVKGRFTISRDNAKNTVYLQMNSLKPEDTAVYYCAKRSLYSYYYWGQGTQVTVSS” the “polyreactivity (PSR sort gate)” value was “high polyreactivity”.
For “QVQLVESGGGLDQAGGSLRLSCAASGSTFYYNAMGWYRQAPGKERELVAAISSDGSTNYADSVKGRFTISRDNAKNTVYLQMNSLKPEDTAVYYCAKKDFYFAPSPGYYRSRDYWGQGTQVTVSS”, the “polyreactivity (PSR sort gate)” value was “low polyreactivity”.
For “QVQLVESGGGLDQAGGSLRLSCAASGTTFRNNAMGWYRQAPGKERELVAVITGDGGSTYYADSVKGRFTISRDNAKNTVYLEMNSLKPEDTAVYYCNARSIRYSRFRQRFGYWGQGTQVTVSS”, the “polyreactivity (PSR sort gate)” value was “low polyreactivity”.
In the case of “QVQLVESGGGLDQAGGSLRLSCAASGVNAMGWYRQAPGKEREFVAAITSIGGSTYYADSVKGRFTISRDNAKNTVYLQMNRLKPEDTAVYYCNPDSGPVKVSPLYESWGQGTQVTVSS”, the “polyreactivity (PSR sort gate)” value is reported as “low polyreactivity”.
In the case of “QVQLVESGGGLDQAGGSLRLSCAASRSTFPHYAMGWYRQAPGKERELVAAIYSTGGSTYYADSVKGRFTISRDNAKNTVYLQMNSLKPEDTAVYYCAASRLYWGQGNQVTVSS”, the “polyreactivity (PSR sort gate)” value is reported as “high polyreactivity”.
With “QVQLVESGGGLDQAGGSLRLSCAGSGSIFTSYAMGWDIQAPGKERELVAAISQSGGDTYYADSVKGRFTISRDNAKNTVYLQMNSLKPEDTAVYYCAASVWYYPMDYWGQGTQVTVSS” the “polyreactivity (PSR sort gate)” value was “low polyreactivity”.
In the case of “QVQLVESGGGLDQAGGSLRLSGAASGRILWYNAMGWYRQAPGKERELVAAISWTGGSTYYADSVKGRFTISRDNAKNTVYLQMNSLKPEDTAVYYCNVDTPYTQGFDQRQGYTFDYWGQGTQVTVSS”, the “polyreactivity (PSR sort gate)” value is reported as “low polyreactivity”.
With “QVQLVESGGGLDQAGGSLRLSGAASGSIFDNAMGWYSQAPGKERELVAAITSGGITNYADSVKGRFTISRDNAKNTVYLQMNSLKPEDTAVYYCNTLSPTQTKYDYWGQGTQVTVSS” the “polyreactivity (PSR sort gate)” value was “low polyreactivity”.
In the case of “QVQLVESGGGLDQAGGSLRLSSAASGRTFYYYAMGWYRKAPGKERELVAAITRSGGSTYYADSVKGRFTISRDNAKNTFYLQMNSLKPEDTAVYYCAVQVRPNSGGTRIHRGGYDYWGQGTQVTVSS”, the “polyreactivity (PSR sort gate)” value is reported as “low polyreactivity”.
For “QVQLVESGGGLDQAGGSLRLSWAASGFTFVPYAMGWYRQAPGKERNLVARITGGGGNTYYADSVKGRFTISRDNAKNTVYLQMISLKPEDTAVYYCAADYTNWKTCSNEMYYWGQGTQVTVSS”, the “polyreactivity (PSR sort gate)” value was “low polyreactivity”.
For “QVQLVESGGGLDQAGGSLRLSWAASGGIFIYNAMGWYRQPPGKEREVVAAINISGGNTYYADSVKGRFTISRDNAKNTVYLQMNSLKPEDTAVYYCAARYASSWWIRYYFWGQGTQVTVSS”, the “polyreactivity (PSR sort gate)” value was “high polyreactivity”.
In the case of “QVQLVESGGGLDQAGGSLRLTCAASGFTFTIYAMGWYRQAPGKERELVATISGRAGRTYYADSVMGRFTISRDNAKNTVSLQMTSLKPEDTAVYYCNAGQWRYPGLYYYWGQGTQVNVSS”, the “polyreactivity (PSR sort gate)” value is reported as “high polyreactivity”.
With “QVQLVESGGGLDQAGGSLRLTCAASGNTFRSYAMGWSRQAPGKEREFVAAISLSGGNTYYADSVKGRFTISRDNAKNTVYVQMNSLKPEDTAVYYCAADYEYSGYGYWGQGTQVTVSS” the “polyreactivity (PSR sort gate)” value was “high polyreactivity”.
With “QVQLVESGGGLDQAGGSLRLTCAASGSTFYLYDMGWYRQAPGKERELVAVISWSGGSTSYADSVKGRFTISSDNAKNTVYLHMNSLTPEDTAVYYCAAAIGVYYIDYRYLGTVEYWGQGTQVTVSS” the “polyreactivity (PSR sort gate)” value was “low polyreactivity”.
In the case of “QVQLVESGGGLDQAGGTLRISCAASGSIFAPNAMSWNRQAPGKERELVAAITYSGTSTYADSVKGRFTISRDNAKNTVYLQMNSLKPEDTAVYYCAAEGSGVYYHSYDYWGQGTQVTVSS”, the “polyreactivity (PSR sort gate)” value is reported as “low polyreactivity”.
For “QVQLVESGGGLDQAGRSLRLSCAASGLIFTDYTMGWYRQAPGKERELVATISTGGRTFYADSVKGRFTISRDNAKNTVYLQMNSLKPEDTAVYYCAKDQPGRAGFLFTPGLVDYDYWGQGTQVTVSS”, the “polyreactivity (PSR sort gate)” value was “low polyreactivity”.
With “QVQLVESGGGLDQARGSLRLSCAASGRTFWTNVMGWYRQAPGKERELVAAITSSTDSTYYADSVKGRFTISLDNAKNTVYLQMNSLKPEDTAVYYCATVVRLYRGRYRYDYWGQGTQVTVSS” the “polyreactivity (PSR sort gate)” value was “high polyreactivity”.
For “QVQLVESGGGLDQARGSLRLSCAASGSIFWKYAMGWYRQAPWKERELVAAISRSSSTTYYADSVKGRFTISRDNAKNTVYLQMNSLKPEDTAVYYCAAYYRSRVSDDYWGQGTQVTVSS”, the “polyreactivity (PSR sort gate)” value was “high polyreactivity”.
For “QVQLVESGGGLDQARGSLRLSCAASGSTLAVYAIGWYRQAPGKEREFVAAISWSGVSTYYADSVKGRFTISLDNAKNTVYLQMNSLKPEDTAVYDCAAKRVRALYGGSEGGYWGQGTQVTVSS”, the “polyreactivity (PSR sort gate)” value was “low polyreactivity”.
In the case of “QVQLVESGGGLDQSGGSLRISCAASGSTFYRNAMGWYRQAPGKEREFVAAITTDDSTYYADSVKGRFTISRDNAKNTVYLQMNSLKPEDTAVYYCAAGLEGKATWAAVGGYDYWGQGTQVTVSS”, the “polyreactivity (PSR sort gate)” value is reported as “low polyreactivity”.
In the case of “QVQLVESGGGLFHAGGRLRLSCAASGRIFGRYDMGWSIQAPGKERELVASISTGGGGTYYADSVKGRFTISRDNAKNTVYLQMNSLKPEDTAVYYCAKAWRGFWTKYDYWGQGTQVTVSS”, the “polyreactivity (PSR sort gate)” value is reported as “low polyreactivity”.
In the case of “QVQLVESGGGLFHAGGSLRLSCAASGRIFYNYAMGWSRQAPGKERELVAAISGSGGSTYYADSVKGRFTISRDNAKNTVYLQMNSLKPDDTAVYYCSTSGPQYYSRNFDYWGQGTQVTVSS”, the “polyreactivity (PSR sort gate)” value is reported as “low polyreactivity”.
With “QVQLVESGGGLFHAGGSLRLSFAASGSILYNAMGWYRQAPGKERELVAAIDSTSVDTYYADSVKGRFTISRDNAKNTVYLQMNSLKPEDTAVYYCSADYVYDDEGDFWGQGTQVTVSS” the “polyreactivity (PSR sort gate)” value was “high polyreactivity”.
